This note sets out measurements from patent US20080096809A1.

For this test, the target named is Tar-1 all-L NBD peptide (Escherichia coli). The test is described as follows: FRET in PE/PG (7:3 w/w) SUV, NBD donor and rhodamine-TAMRA acceptor, acceptor-to-lipid ratio 1:7500.

B1: Tar-1 diastereomeric rhodamine peptide (peptide)
peptide: KKKMVLGVFALLQLISGSLKK
modifications: not checked
Take B1: the energy transfer stood at 30%.
